# Results: PMC11685663
# Molecular target: recombinant H5 hemagglutinin (rH5) ectodomain from A/Texas/37/2024 (H5N1, clade 2.3.4.4b) (influenza A virus A/Texas/37/2024 (H5N1))
# Test: cryo-EM structure
substance,measurement,value
"recombinant H5 hemagglutinin (rH5) ectodomain from A/Texas/37/2024 (H5N1, clade 2.3.4.4b) (natural protein)",stoichiometry N,3
